Data taken from patent publication US20190106460A1 (published 2019).
Starred links: 1 amine or outer side, 2 acyl side, 3 side chain; linkers in the order of their positions; H or OH if unused. Non-standard residues stand in square brackets, D forms with d. No end group written: not given here. *: point of attachment. Tyr(Me) = O-methyl-L-tyrosine, COc1ccc(C[C@H](N[*:1])C(=O)[*:2])cc1; Phe(4-NO2) = N[C@@H](Cc1ccc([N+](=O)[O-])cc1)C(=O)O; 2,4,6‑trimethylbenzoyl = Cc1cc(C)c(C(=O)*)c(C)c1; Benzenesulfonyl(4-OMe) = COc1ccc(S(=O)(=O)*)cc1; Benzoyl(4-tBu) = CC(C)(C)c1ccc(C(=O)*)cc1; Phe(3-F) = N[C@@H](Cc1cccc(F)c1)C(=O)O; Phe(4-F) = N[C@@H](Cc1ccc(F)cc1)C(=O)O; 1Nal = N[C@@H](Cc1cccc2ccccc12)C(=O)O; Phe(2-F) = N[C@@H](Cc1ccccc1F)C(=O)O; Maleoyl = O=C(/C=C\C(=O)[*:2])[*:1]; Benzoyl(4-Br) = O=C(c1ccc(Br)cc1)*; 2Naphthoyl = O=C(c1ccc2ccccc2c1)*; Benzoyl(4-Me) = Cc1ccc(C(=O)*)cc1; pS = N[C@@H](COP(=O)(O)O)C(=O)O; Suc = O=C(CCC(=O)[*:2])[*:1]; Hexanoyl = CCCCCC(=O)*; Bz = O=C(c1ccccc1)*; Ahx = NCCCCCC(=O)O

Columns and labels:
Fbw7 = Fbw7 (UniProt Q969H0 263-707, limits assumed); test: cell-based or functional assay
Skp2 = Skp2 (UniProt Q13309 1-424, limits assumed); test: cell-based or functional assay
[1] = molecular target: T1, Beta Transducin repeat-containing protein (βTrCP), tag cleaved and complexed with Skp1 (UniProt Q9Y297 175-605; P63208 1-163); test: FP competition dose-response, fluorescein-IkB peptide tracer on βTrCP/Skp1 (average Ki; assay not given)
T1 construct: the FP protocol says that Ki is determined from FP dose-response curves; also called βTrCP/Skp1
T1 sequence (Q9Y297 175-605, chain 1 of 2): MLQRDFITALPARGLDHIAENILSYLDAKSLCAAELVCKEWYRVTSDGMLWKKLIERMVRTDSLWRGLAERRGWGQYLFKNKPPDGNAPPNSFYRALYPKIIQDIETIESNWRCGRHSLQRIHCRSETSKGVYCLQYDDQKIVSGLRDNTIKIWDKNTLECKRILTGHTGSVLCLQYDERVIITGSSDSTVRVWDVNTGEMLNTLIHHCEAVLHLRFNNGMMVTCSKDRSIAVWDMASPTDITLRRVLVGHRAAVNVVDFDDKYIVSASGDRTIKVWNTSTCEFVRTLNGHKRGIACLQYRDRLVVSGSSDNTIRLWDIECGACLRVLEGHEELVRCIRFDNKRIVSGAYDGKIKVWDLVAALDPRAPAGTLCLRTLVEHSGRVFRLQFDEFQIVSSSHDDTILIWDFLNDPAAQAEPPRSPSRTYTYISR
T1 sequence (P63208 whole entry, chain 2 of 2): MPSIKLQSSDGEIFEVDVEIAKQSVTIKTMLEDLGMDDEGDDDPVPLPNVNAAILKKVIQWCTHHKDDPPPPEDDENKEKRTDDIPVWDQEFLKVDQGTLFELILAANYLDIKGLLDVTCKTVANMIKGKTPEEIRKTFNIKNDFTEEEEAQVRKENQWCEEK

Fbw7, sequence (Q969H0 263-707 limits assumed): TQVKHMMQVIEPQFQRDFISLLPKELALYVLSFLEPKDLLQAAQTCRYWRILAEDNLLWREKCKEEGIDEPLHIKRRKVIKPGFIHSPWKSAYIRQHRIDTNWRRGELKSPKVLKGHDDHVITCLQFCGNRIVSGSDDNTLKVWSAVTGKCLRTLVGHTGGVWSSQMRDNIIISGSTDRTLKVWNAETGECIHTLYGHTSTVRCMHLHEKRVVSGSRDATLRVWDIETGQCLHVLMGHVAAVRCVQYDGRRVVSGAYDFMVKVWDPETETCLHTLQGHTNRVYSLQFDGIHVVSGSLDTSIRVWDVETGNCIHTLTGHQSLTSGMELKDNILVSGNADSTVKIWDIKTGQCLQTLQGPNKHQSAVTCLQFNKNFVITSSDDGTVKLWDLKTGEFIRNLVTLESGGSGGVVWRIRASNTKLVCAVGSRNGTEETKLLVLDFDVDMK
Skp2, sequence (Q13309 whole entry): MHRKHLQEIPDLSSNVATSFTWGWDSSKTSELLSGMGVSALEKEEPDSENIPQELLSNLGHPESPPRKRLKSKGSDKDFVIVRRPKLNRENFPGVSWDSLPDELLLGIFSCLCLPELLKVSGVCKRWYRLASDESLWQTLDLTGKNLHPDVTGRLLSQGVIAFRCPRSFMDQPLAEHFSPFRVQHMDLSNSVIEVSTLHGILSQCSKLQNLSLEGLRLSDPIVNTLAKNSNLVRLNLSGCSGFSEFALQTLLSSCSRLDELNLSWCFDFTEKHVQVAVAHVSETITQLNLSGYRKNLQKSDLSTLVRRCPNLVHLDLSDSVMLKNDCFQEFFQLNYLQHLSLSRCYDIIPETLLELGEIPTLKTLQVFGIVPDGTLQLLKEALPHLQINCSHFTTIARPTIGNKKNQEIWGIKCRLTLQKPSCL

Binder | % Inhibition Fbw7 @ 10 µM (Fbw7) | % Inhibition Fbw7 @ (100 µM) (Fbw7) | % Inhibition Skp2 @ 10 µM (Skp2) | % Inhibition Skp2 @ (100 µM) (Skp2) | Ki [1]
Suc-EG[Phe(2-F)][Phe(4-NO2)]E-NH2 (SMILES NC(=O)[C@H](CCC(=O)O)NC(=O)[C@H](Cc1ccc([N+](=O)[O-])cc1)NC(=O)[C@H](Cc1ccccc1F)NC(=O)CNC(=O)[C@H](CCC(=O)O)NC(=O)CCC(=O)O) [Suc-EGF(2F)F(4NO2)E-NH2] | 0% | 0% | 8% | 11% | –
{Benzenesulfonyl(4-OMe)}-[dD]EG[Phe(3-F)]WE[Ahx]K(3,5‑dichlorobenzoyl)-NH2 (also called UBP062) [4-(MeO)PhSO2-dEGF(3F)WE-Ahx-K(NHCO-(3,5-(Cl)2-Ph))-NH2] | – | – | – | – | 6.23 nM
{Benzenesulfonyl(4-OMe)}-[dD]EG[Phe(3-F)]WE[Ahx]K(4‑methoxybenzoyl)-NH2 (also called UBP066) [4-(MeO)PhSO2-dEGF(3F)WE-Ahx-K(NHCO-(4-(OMe)-Ph))-NH2] | – | – | – | – | 5.17 nM
{Benzenesulfonyl(4-OMe)}-[dD]EG[Phe(3-F)]WE[Ahx]K(4‑(trifluoromethyl)benzoyl)-NH2 (also called UBP064) [4-(MeO)PhSO2-dEGF(3F)WE-Ahx-K(NHCO-(4-(CF3)-Ph))-NH2] | – | – | – | – | 6.39 nM
Suc-EG[Phe(3-F)][1Nal]E-NH2 [Suc-EGF(3F)1NalE-NH2] | 3% | 0% | 0% | 12% | –
{Benzenesulfonyl(4-OMe)}-[dD]EG[Phe(3-F)]WE[Ahx]K(4‑bromophenylsulfonyl)-NH2 (also called UBP059) [4-(MeO)PhSO2-dEGF(3F)WE-Ahx-K(NHSO2-(4-(Br)-Ph))-NH2] | – | – | – | – | 2.96 nM
{Benzenesulfonyl(4-OMe)}-[dD]EG[Phe(3-F)]WE[Ahx]K(Benzoyl(4-Br))-NH2 (also called UBP058) [4-(MeO)PhSO2-dEGF(3F)WE-Ahx-K(NHCO-(4-(Br)-Ph))-NH2] | – | – | – | – | 3.35 nM
{Benzenesulfonyl(4-OMe)}-[dD]EG[Phe(3-F)]WE[Ahx]K(4‑chlorobenzoyl)-NH2 (also called UBP060) [4-(MeO)PhSO2-dEGF(3F)WE-Ahx-K(NHCO-(4-(Cl)-Ph))-NH2] | – | – | – | – | 3.64 nM
Suc-EGY[Phe(4-NO2)]E-NH2 (SMILES NC(=O)[C@H](CCC(=O)O)NC(=O)[C@H](Cc1ccc([N+](=O)[O-])cc1)NC(=O)[C@H](Cc1ccc(O)cc1)NC(=O)CNC(=O)[C@H](CCC(=O)O)NC(=O)CCC(=O)O) [Suc-EGYF(4NO2)E-NH2] | 0% | 0% | 11% | 31% | –
Suc-EG[Phe(4-F)][Phe(4-NO2)]E-NH2 (SMILES NC(=O)[C@H](CCC(=O)O)NC(=O)[C@H](Cc1ccc([N+](=O)[O-])cc1)NC(=O)[C@H](Cc1ccc(F)cc1)NC(=O)CNC(=O)[C@H](CCC(=O)O)NC(=O)CCC(=O)O) [Suc-EGF(4F)F(4NO2)E-NH2] | 0% | 0% | 0% | 0% | –
{Benzenesulfonyl(4-OMe)}-[dD]EG[Phe(3-F)]WE[Ahx]K(2,4,6‑trimethylbenzoyl)-NH2 (also called UBP056) [4-(MeO)PhSO2-dEGF(3F)WE-Ahx-K(NHCO-(2,4,6-(Me)3-Ph))-NH2] | – | – | – | – | 3.39 nM
Suc-EG[Phe(3-F)][Phe(4-NO2)]E-NH2 (SMILES NC(=O)[C@H](CCC(=O)O)NC(=O)[C@H](Cc1ccc([N+](=O)[O-])cc1)NC(=O)[C@H](Cc1cccc(F)c1)NC(=O)CNC(=O)[C@H](CCC(=O)O)NC(=O)CCC(=O)O) [Suc-EGF(3F)F(4NO2)E-NH2] | 0% | 2% | 0% | 3% | –
{Benzenesulfonyl(4-OMe)}-[dD]EG[Phe(3-F)]WE[Ahx]K(4‑(dimethylamino)benzoyl)-NH2 (also called UBP071) [4-(MeO)PhSO2 dEGF(3F)WE-Ahx-K(NHCO-(4-(Me2N)-Ph))-NH2] | – | – | – | – | 9.51 nM
{Benzenesulfonyl(4-OMe)}-[dD]EG[Phe(3-F)]WE[Ahx]K(Benzoyl(4-tBu))-NH2 (also called UBP054) [4-(MeO)PhSO2-dEGF(3F)WE-Ahx-K(NHCO-(4-(t-Bu-Ph))-NH2] | – | – | – | – | 1.94 nM
Suc-EG[Phe(2-F)][Tyr(Me)]E-NH2 (SMILES COc1ccc(C[C@H](NC(=O)[C@H](Cc2ccccc2F)NC(=O)CNC(=O)[C@H](CCC(=O)O)NC(=O)CCC(=O)O)C(=O)N[C@@H](CCC(=O)O)C(N)=O)cc1) [Suc-EGF(2F)Y(Me)E-NH2] | 0% | 4% | 0% | 4% | –
{Benzenesulfonyl(4-OMe)}-[dD]EG[Phe(3-F)]WE[Ahx]K-NH2 (not fully specified (residue 8); printed as 4-(MeO)PhSO2-dEGF(3F)WE-Ahx-K(NHCO-CH2CH2Ch(CH3)2)-NH2, also called UBP068) [4-(MeO)PhSO2-dEGF(3F)WE-Ahx-K(NHCO-CH2CH2Ch(CH3)2)-NH2] | – | – | – | – | 5.38 nM
D[pS]GIFE-NH2 (N-terminus assumed; SMILES CC[C@H](C)[C@H](NC(=O)CNC(=O)[C@H](COP(=O)(O)O)NC(=O)[C@@H](N)CC(=O)O)C(=O)N[C@@H](Cc1ccccc1)C(=O)N[C@@H](CCC(=O)O)C(N)=O) [DpSGIFE-NH2] | 0% | 0% | 8% | 13% | –
Suc-EG[Phe(4-NO2)][1Nal]E-NH2 (SMILES NC(=O)[C@H](CCC(=O)O)NC(=O)[C@H](Cc1cccc2ccccc12)NC(=O)[C@H](Cc1ccc([N+](=O)[O-])cc1)NC(=O)CNC(=O)[C@H](CCC(=O)O)NC(=O)CCC(=O)O) [Suc-EGF(4NO2)1NalE-NH2] | 14% | 28% | 12% | 6% | –
{Benzenesulfonyl(4-OMe)}-[dD]EG[Phe(3-F)]WE[Ahx]K-NH2 (not fully specified (residue 8); printed as 4-(MeO)PhSO2-dEGF(3F)WE-Ahx-K(NHCO-Ph)-NH2, also called UBP065) [4-(MeO)PhSO2-dEGF(3F)WE-Ahx-K(NHCO-Ph)-NH2] | – | – | – | – | 5.94 nM
{Benzenesulfonyl(4-OMe)}-[dD]EG[Phe(3-F)]WE-NH2 (SMILES COc1ccc(S(=O)(=O)N[C@H](CC(=O)O)C(=O)N[C@@H](CCC(=O)O)C(=O)NCC(=O)N[C@@H](Cc2cccc(F)c2)C(=O)N[C@@H](Cc2c[nH]c3ccccc23)C(=O)N[C@@H](CCC(=O)O)C(N)=O)cc1, also called UBP022) [4-(MeO)PhSO2-dEGF(3F)WE-NH2] | – | – | – | – | 5.78 nM
QGXXE (N-terminal Suc (succinyl) cap; position 3 F(3F); position 4 F(4NO2); C-terminal amide) [Suc-QGF(3F)F(4NO2)E-NH2] | 0% | 0% | 0% | 0% | –
{Benzenesulfonyl(4-OMe)}-[dD]EG[Phe(3-F)]WE[Ahx]K(Bz)-NH2 (also called UBP061) [4-(MeO)PhSO2-dEGF(3F)WE-Ahx-K(NHCOPh)-NH2] | – | – | – | – | 3.1 nM
{Benzenesulfonyl(4-OMe)}-[dD]EG[Phe(3-F)]WE[Ahx]K(Hexanoyl)-NH2 (also called UBP063) [4-(MeO)PhSO2-dEGF(3F)WE-Ahx-K(NHCO-(CH2)4CH3)-NH2] | – | – | – | – | 5.37 nM
{Benzenesulfonyl(4-OMe)}-[dD]EG[Phe(3-F)]WE[Ahx]K(phenylcarbamoyl)-NH2 [4-(MeO)PhSO2-dEGF(3F)WE-Ahx-K(NHCONH-Ph)-NH2] | – | – | – | – | 5.61 nM
{Benzenesulfonyl(4-OMe)}-[dD]EG[Phe(3-F)]WE[Ahx]K(Benzoyl(4-Me))-NH2 (also called UBP057) [4-(MeO)PhSO2-dEGF(3F)WE-Ahx-K(NHCO-(4-(ME)-Ph))-NH2] | – | – | – | – | 2.88 nM
Maleoyl-EG[Phe(3-F)][Phe(4-NO2)]E-NH2 (SMILES NC(=O)[C@H](CCC(=O)O)NC(=O)[C@H](Cc1ccc([N+](=O)[O-])cc1)NC(=O)[C@H](Cc1cccc(F)c1)NC(=O)CNC(=O)[C@H](CCC(=O)O)NC(=O)/C=C\C(=O)O) [Mal-EGF(3F)F(4NO2)E-NH2] | 0% | 18% | 0% | 14% | –
Suc-EGY[1Nal]E-NH2 [Suc-EGY1NalE-NH2] | 1% | 5% | 0% | 6% | –
{Benzenesulfonyl(4-OMe)}-[dD]EG[Phe(3-F)]WE[Ahx]K(1‑naphthyloxycarbonyl)-NH2 (also called UBP069) [4-(MeO)PhSO2-dEGF(3F)WE-Ahx-K(NHOCO-1-Naph)-NH2] | – | – | – | – | 11.6 nM
{Benzenesulfonyl(4-OMe)}-[dD]EG[Phe(3-F)]WE[Ahx]K(2Naphthoyl)-NH2 (also called UBP055) [4-(MeO)PhSO2-dEGF(3F)WE-Ahx-K(NHCO-2-Naph)-NH2] | – | – | – | – | 1.85 nM
